Experimental data published in patent publication US20190185560A1 (Novo Nordisk, published 2019).

T1: cynomolgus TREM-1-Fc (cynomolgus monkey)
T1 construct: also called cTREM-1
T1 chain: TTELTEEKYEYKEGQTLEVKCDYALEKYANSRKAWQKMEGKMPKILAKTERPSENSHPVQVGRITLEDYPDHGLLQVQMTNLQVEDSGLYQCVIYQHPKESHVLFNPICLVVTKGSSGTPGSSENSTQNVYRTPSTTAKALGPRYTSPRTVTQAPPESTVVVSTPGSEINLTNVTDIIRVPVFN

T2: cynomolgus TREM-1 on cells (TE426.27 reporter cell line) (cynomolgus monkey)
T2 chain: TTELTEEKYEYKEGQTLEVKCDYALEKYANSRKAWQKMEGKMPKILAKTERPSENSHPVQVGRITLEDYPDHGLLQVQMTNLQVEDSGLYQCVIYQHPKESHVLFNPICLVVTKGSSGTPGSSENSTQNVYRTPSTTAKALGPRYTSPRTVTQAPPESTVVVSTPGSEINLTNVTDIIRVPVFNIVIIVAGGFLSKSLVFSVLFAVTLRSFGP


Experiments:
[1] = molecular target: T1, cynomolgus TREM-1-Fc; assay: SPR (ProteOn), antibody captured via anti-Fc, TREM-1-Fc as analyte, 1:1 Langmuir fit, 25 C
Protocol: Binding studies were performed on a ProteOn Analyzer (BioRad) that measures molecular interactions in real time through surface plasmon resonance. Experiments were run at 25° C. and the samples were stored at 15° C. in the sample compartment. The signal (RU, response units) reported by the ProteOn is directly correlated to the mass on the individual sensor chip surfaces in the six parallel flow cells. Anti-human Fc monoclonal or anti-murine Fc polyclonal antibody from Biacore human or mouse Fc capture kits were immobilized in horizontal direction onto flow cells of a GLM sensor chip according to the manufacturer's instructions. The final immobilization level of capture antibody was approximately 2600-6000 RU in each experiment. The capture of purified monoclonal mouse or recombinantly expressed anti-hTREM-1 antibodies was conducted by diluting the antibodies to 5-10 nM into running buffer (10 mM Hepes 0.15 M NaCl, 5 mM EDTA, 0.05% surfactant P20, pH 7.4) followed by injection in vertical direction at 30 μL/min for 60 sec, creating reference interspots adjacent to all flow cells with only anti-Fc antibody immobilized. […] Binding of hTREM-1 or cTREM-1 proteins was conducted by injecting analyte (antigen) over all flow cells in horizontal direction to allow for comparative analyses of binding to different captured anti-TREM-1 antibodies relative to binding to the reference interspot. hTREM-1 or cTREM-1 proteins were diluted serially 1:3 to 1.2-100 nM or into running buffer, injected at 100 μL/min for 250 s and allowed to dissociate for 600 s. The GLM surface was regenerated after each injection cycle of analyte via two 18 s injections of 10 mM Glycine, pH 1.7 and 50 mM NaOH at 100 μL/min. This regeneration step removed the anti-TREM-1 antibody and any bound TREM-1 protein from the immobilized capture antibody surface and allowed for the subsequent binding of the next interaction sample pair.

[2] = molecular target: T2, cynomolgus TREM-1 on cells (TE426.27 …); assay: cell-based or functional assay
[3] = molecular target: the molecule itself; assay: X-ray crystal structure of the Fab region of mAb 0170 (self-interaction in the crystal)
Protocol: The crystal was transferred to a drop consisting of 2 μL 35% (w/v) PEG3350, 200 mM K₂HPO₄ and mounted in a 0.2 mm diameter litholoop (Molecular Dimensions Limited) and flash-cooled in liquid nitrogen.
Data were collected to a resolution of 2.40 Å. […] The search models were structures of the heavy chain from the pdb entry 1AD0.pdb (85% identity) and the light chain from the pdb entry 2QRG (94% identity).

Row | Binder | Kd [1] [nM] | IC50: inhibition of luminescence of TE426.27 cynomolgus TREM-1 reporter cells stimulated with PGN and recombinant PGLYRP1 [2] [nM] | binding result [3]
1 | mAb 0170 (humanised TREM-1 antibody, mAb 0170 of WO2013/120553) (antibody, V domains shown, also called mAb 170) VH: EVQLVESGGGLVQPGGSLKLSCAASGFTFSTYAMHWVRQASGKGLEWVGRIRTKSSNYATYYAASVKGRFTISRDDSKNTAYLQMNSLKTEDTAVYYCTRDMGIRRQFAYWGQGTLVTVSS VL: DIVLTQSPDSLAVSLGERATINCRASESVDTFDYSFLHWYQQKPGQPPKLLIYRASNLESGVPDRFSGSGSGTDFTLTISSLQAEDVAVYYCQQSNEDPYTFGQGTKLEIKR | 2 | 6 | 
2 | mAb 0317 (mAb 0170 variant, light chain E27Q, E97S) (antibody, human IgG4 S228P, kappa, V domains shown, Charge patch mutations) VH: EVQLVESGGGLVQPGGSLKLSCAASGFTFSTYAMHWVRQASGKGLEWVGRIRTKSSNYATYYAASVKGRFTISRDDSKNTAYLQMNSLKTEDTAVYYCTRDMGIRRQFAYWGQGTLVTVSS VL: DIVLTQSPDSLAVSLGERATINCRASQSVDTFDYSFLHWYQQKPGQPPKLLIYRASNLESGVPDRFSGSGSGTDFTLTISSLQAEDVAVYYCQQSNSDPYTFGQGTKLEIKR | 3 | 9.5 | 
3 | mAb 0318 (mAb 0170 variant, light chain E27Q, E97Q) (antibody, human IgG4 S228P, kappa, V domains shown, Charge patch mutations) VH: EVQLVESGGGLVQPGGSLKLSCAASGFTFSTYAMHWVRQASGKGLEWVGRIRTKSSNYATYYAASVKGRFTISRDDSKNTAYLQMNSLKTEDTAVYYCTRDMGIRRQFAYWGQGTLVTVSS VL: DIVLTQSPDSLAVSLGERATINCRASQSVDTFDYSFLHWYQQKPGQPPKLLIYRASNLESGVPDRFSGSGSGTDFTLTISSLQAEDVAVYYCQQSNQDPYTFGQGTKLEIKR | 2 | 5.6 | 
4 | mAb 0319 (mAb 0170 variant, light chain E97S) (antibody, human IgG4 S228P, kappa, V domains shown, Charge patch mutation) VH: EVQLVESGGGLVQPGGSLKLSCAASGFTFSTYAMHWVRQASGKGLEWVGRIRTKSSNYATYYAASVKGRFTISRDDSKNTAYLQMNSLKTEDTAVYYCTRDMGIRRQFAYWGQGTLVTVSS VL: DIVLTQSPDSLAVSLGERATINCRASESVDTFDYSFLHWYQQKPGQPPKLLIYRASNLESGVPDRFSGSGSGTDFTLTISSLQAEDVAVYYCQQSNSDPYTFGQGTKLEIKR | 2 | 17.7 | 
5 | mAb 0320 (mAb 0170 variant, light chain E97Q) (antibody, human IgG4 S228P, kappa, V domains shown, Charge patch mutation) VH: EVQLVESGGGLVQPGGSLKLSCAASGFTFSTYAMHWVRQASGKGLEWVGRIRTKSSNYATYYAASVKGRFTISRDDSKNTAYLQMNSLKTEDTAVYYCTRDMGIRRQFAYWGQGTLVTVSS VL: DIVLTQSPDSLAVSLGERATINCRASESVDTFDYSFLHWYQQKPGQPPKLLIYRASNLESGVPDRFSGSGSGTDFTLTISSLQAEDVAVYYCQQSNQDPYTFGQGTKLEIKR | 3 |  | 
6 | mAb 0321 (mAb 0170 variant, light chain E27Q) (antibody, human IgG4 S228P, kappa, V domains shown, Charge patch mutation) VH: EVQLVESGGGLVQPGGSLKLSCAASGFTFSTYAMHWVRQASGKGLEWVGRIRTKSSNYATYYAASVKGRFTISRDDSKNTAYLQMNSLKTEDTAVYYCTRDMGIRRQFAYWGQGTLVTVSS VL: DIVLTQSPDSLAVSLGERATINCRASQSVDTFDYSFLHWYQQKPGQPPKLLIYRASNLESGVPDRFSGSGSGTDFTLTISSLQAEDVAVYYCQQSNEDPYTFGQGTKLEIKR | 2 |  | 
7 | mAb 0322 (mAb 0170 variant, light chain F32A) (antibody, human IgG4 S228P, kappa, V domains shown) VH: EVQLVESGGGLVQPGGSLKLSCAASGFTFSTYAMHWVRQASGKGLEWVGRIRTKSSNYATYYAASVKGRFTISRDDSKNTAYLQMNSLKTEDTAVYYCTRDMGIRRQFAYWGQGTLVTVSS VL: DIVLTQSPDSLAVSLGERATINCRASESVDTADYSFLHWYQQKPGQPPKLLIYRASNLESGVPDRFSGSGSGTDFTLTISSLQAEDVAVYYCQQSNEDPYTFGQGTKLEIKR | 0.1 | 5.9 | 
8 | mAb 0323 (mAb 0170 variant, light chain F32S) (antibody, human IgG4 S228P, kappa, V domains shown) VH: EVQLVESGGGLVQPGGSLKLSCAASGFTFSTYAMHWVRQASGKGLEWVGRIRTKSSNYATYYAASVKGRFTISRDDSKNTAYLQMNSLKTEDTAVYYCTRDMGIRRQFAYWGQGTLVTVSS VL: DIVLTQSPDSLAVSLGERATINCRASESVDTSDYSFLHWYQQKPGQPPKLLIYRASNLESGVPDRFSGSGSGTDFTLTISSLQAEDVAVYYCQQSNEDPYTFGQGTKLEIKR | 0.6 |  | 
9 | mAb 0324 (mAb 0170 variant, heavy chain A59Y) (antibody, human IgG4 S228P, kappa, V domains shown) VH: EVQLVESGGGLVQPGGSLKLSCAASGFTFSTYAMHWVRQASGKGLEWVGRIRTKSSNYYTYYAASVKGRFTISRDDSKNTAYLQMNSLKTEDTAVYYCTRDMGIRRQFAYWGQGTLVTVSS VL: DIVLTQSPDSLAVSLGERATINCRASESVDTFDYSFLHWYQQKPGQPPKLLIYRASNLESGVPDRFSGSGSGTDFTLTISSLQAEDVAVYYCQQSNEDPYTFGQGTKLEIKR | 4 |  | 
10 | mAb 0325 (mAb 0170 variant, heavy chain N57S) (antibody, human IgG4 S228P, kappa, V domains shown) VH: EVQLVESGGGLVQPGGSLKLSCAASGFTFSTYAMHWVRQASGKGLEWVGRIRTKSSSYATYYAASVKGRFTISRDDSKNTAYLQMNSLKTEDTAVYYCTRDMGIRRQFAYWGQGTLVTVSS VL: DIVLTQSPDSLAVSLGERATINCRASESVDTFDYSFLHWYQQKPGQPPKLLIYRASNLESGVPDRFSGSGSGTDFTLTISSLQAEDVAVYYCQQSNEDPYTFGQGTKLEIKR | 1 |  | 
11 | mAb 0330 (mAb 0170 variant, light chain F32A, E27Q, E97Q) (antibody, human IgG4 S228P, kappa, V domains shown) VH: EVQLVESGGGLVQPGGSLKLSCAASGFTFSTYAMHWVRQASGKGLEWVGRIRTKSSNYATYYAASVKGRFTISRDDSKNTAYLQMNSLKTEDTAVYYCTRDMGIRRQFAYWGQGTLVTVSS VL: DIVLTQSPDSLAVSLGERATINCRASQSVDTADYSFLHWYQQKPGQPPKLLIYRASNLESGVPDRFSGSGSGTDFTLTISSLQAEDVAVYYCQQSNQDPYTFGQGTKLEIKR | 0.1 | 10.7 | 
12 | mAb 0332 (mAb 0170 variant, heavy chain A59Y, light chain E27Q, E97Q) (antibody, human IgG4 S228P, kappa, V domains shown) VH: EVQLVESGGGLVQPGGSLKLSCAASGFTFSTYAMHWVRQASGKGLEWVGRIRTKSSNYYTYYAASVKGRFTISRDDSKNTAYLQMNSLKTEDTAVYYCTRDMGIRRQFAYWGQGTLVTVSS VL: DIVLTQSPDSLAVSLGERATINCRASQSVDTFDYSFLHWYQQKPGQPPKLLIYRASNLESGVPDRFSGSGSGTDFTLTISSLQAEDVAVYYCQQSNQDPYTFGQGTKLEIKR | 4 |  | 
13 | mAb 0333 (mAb 0170 variant, heavy chain A59Y, light chain F32A, E27Q, E97Q) (antibody, human IgG4 S228P, kappa, V domains shown) VH: EVQLVESGGGLVQPGGSLKLSCAASGFTFSTYAMHWVRQASGKGLEWVGRIRTKSSNYYTYYAASVKGRFTISRDDSKNTAYLQMNSLKTEDTAVYYCTRDMGIRRQFAYWGQGTLVTVSS VL: DIVLTQSPDSLAVSLGERATINCRASQSVDTADYSFLHWYQQKPGQPPKLLIYRASNLESGVPDRFSGSGSGTDFTLTISSLQAEDVAVYYCQQSNQDPYTFGQGTKLEIKR | 0.3 |  | 
14 | Fab region of mAb 0170 (Fab, V domains shown, Crystallised alone; packs as Fab-Fab dimers; also called Fab 0170; mAb 170 Fab region) VH: EVQLVESGGGLVQPGGSLKLSCAASGFTFSTYAMHWVRQASGKGLEWVGRIRTKSSNYATYYAASVKGRFTISRDDSKNTAYLQMNSLKTEDTAVYYCTRDMGIRRQFAYWGQGTLVTVSS VL: DIVLTQSPDSLAVSLGERATINCRASESVDTFDYSFLHWYQQKPGQPPKLLIYRASNLESGVPDRFSGSGSGTDFTLTISSLQAEDVAVYYCQQSNEDPYTFGQGTKLEIKR |  |  | binds
